Results as given in the supplement of paper PMC7125110.
± gives the standard error. Variants at the floor of the assay were thinned out.

B1: glmS ribozyme (parent)
chain: AUAAAAGCGCCAGAACUACAGAAAUGUAGUUGACGAGGAGGAGGUUUAUCGAAUUUUCGGCGGAUGCCUCCAAA

Tests used:
Details in all cases: with glucosamine-6-phosphate
glucosamine-6-phosphate [1] = variants of: B1; assay: self-cleavage kobs at 40 uM GlcN6P; higher = faster cleavage; RNA array
In short: (§1)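 Barcoded ribozyme variants were transcribed in situ on sequenced MiSeq chips by E. coli RNA polymerase. At 37 °C, a hybridised Cy3 probe tracked them while glucosamine-6-phosphate (40 μM to 10 mM) in HEPES/KCl/Mg(OAc)2 buffer flowed in and tiles were imaged over ~14 h. Per-tile medians of signals normalised to baseline and to non-cleaving reference variants were fit to one- or two-exponential decays, giving kobs. kcat and KM came from weighted Michaelis–Menten fits across concentrations.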

glucosamine-6-phosphate [2] = variants of: B1; assay: self-cleavage kobs at 160 uM GlcN6P; higher = faster cleavage; RNA array
In short: as §1

glucosamine-6-phosphate [3] = variants of: B1; assay: self-cleavage kobs at 640 uM GlcN6P; higher = faster cleavage; RNA array
In short: as §1

glucosamine-6-phosphate [4] = variants of: B1; assay: self-cleavage kobs at 2500 uM GlcN6P; higher = faster cleavage; RNA array
In short: as §1

glucosamine-6-phosphate [5] = variants of: B1; assay: self-cleavage kobs at 10000 uM GlcN6P; higher = faster cleavage; RNA array
In short: as §1

A12U C16G
self-cleavage kobs at 40 uM GlcN6P (glucosamine-6-phosphate [1]): 0.000539 ± 9e-05 s⁻¹ | self-cleavage kobs at 160 uM GlcN6P (glucosamine-6-phosphate [2]): 0.000549 ± 0.00013 s⁻¹ | self-cleavage kobs at 640 uM GlcN6P (glucosamine-6-phosphate [3]): 0.00491 ± 0.0008 s⁻¹ | self-cleavage kobs at 2500 uM GlcN6P (glucosamine-6-phosphate [4]): 0.00786 ± 0.0024 s⁻¹ | self-cleavage kobs at 10000 uM GlcN6P (glucosamine-6-phosphate [5]): 0.0117 ± 0.0031 s⁻¹

A12U C16U
self-cleavage kobs at 40 uM GlcN6P (glucosamine-6-phosphate [1]): 0.00238 ± 0.0003 s⁻¹ | self-cleavage kobs at 160 uM GlcN6P (glucosamine-6-phosphate [2]): 0.00439 ± 0.00083 s⁻¹ | self-cleavage kobs at 640 uM GlcN6P (glucosamine-6-phosphate [3]): 0.0232 ± 0.0037 s⁻¹ | self-cleavage kobs at 2500 uM GlcN6P (glucosamine-6-phosphate [4]): 0.076 ± 0.027 s⁻¹ | self-cleavage kobs at 10000 uM GlcN6P (glucosamine-6-phosphate [5]): 0.0879 ± 0.035 s⁻¹

C11U A12U A64U
self-cleavage kobs at 40 uM GlcN6P (glucosamine-6-phosphate [1]): < 1e-05 s⁻¹

A12U G44A C67U
self-cleavage kobs at 40 uM GlcN6P (glucosamine-6-phosphate [1]): 0.00174 ± 0.00037 s⁻¹ | self-cleavage kobs at 10000 uM GlcN6P (glucosamine-6-phosphate [5]): 0.0153 ± 0.006 s⁻¹

A12C U30G U54G
self-cleavage kobs at 40 uM GlcN6P (glucosamine-6-phosphate [1]): 3.64e-05 ± 1.3e-05 s⁻¹ | self-cleavage kobs at 2500 uM GlcN6P (glucosamine-6-phosphate [4]): 0.000897 ± 0.00025 s⁻¹ | self-cleavage kobs at 10000 uM GlcN6P (glucosamine-6-phosphate [5]): 0.00183 ± 0.00039 s⁻¹

A12U A33C A42C
self-cleavage kobs at 40 uM GlcN6P (glucosamine-6-phosphate [1]): < 1e-05 s⁻¹

A12C G38A G60A
self-cleavage kobs at 40 uM GlcN6P (glucosamine-6-phosphate [1]): < 1e-05 s⁻¹ | self-cleavage kobs at 160 uM GlcN6P (glucosamine-6-phosphate [2]): < 1e-05 s⁻¹ | self-cleavage kobs at 10000 uM GlcN6P (glucosamine-6-phosphate [5]): < 1e-05 s⁻¹

A12C A20U C67G
self-cleavage kobs at 40 uM GlcN6P (glucosamine-6-phosphate [1]): 9.99e-05 ± 2.5e-05 s⁻¹ | self-cleavage kobs at 10000 uM GlcN6P (glucosamine-6-phosphate [5]): 0.00115 ± 0.00024 s⁻¹

C11U A14C G38A C61G
self-cleavage kobs at 40 uM GlcN6P (glucosamine-6-phosphate [1]): < 1e-05 s⁻¹

C11G U49A
self-cleavage kobs at 40 uM GlcN6P (glucosamine-6-phosphate [1]): < 1e-05 s⁻¹ | self-cleavage kobs at 160 uM GlcN6P (glucosamine-6-phosphate [2]): < 1e-05 s⁻¹ | self-cleavage kobs at 640 uM GlcN6P (glucosamine-6-phosphate [3]): < 1e-05 s⁻¹ | self-cleavage kobs at 2500 uM GlcN6P (glucosamine-6-phosphate [4]): < 1e-05 s⁻¹

A12C C16G
self-cleavage kobs at 40 uM GlcN6P (glucosamine-6-phosphate [1]): 8.16e-05 ± 1.1e-05 s⁻¹ | self-cleavage kobs at 160 uM GlcN6P (glucosamine-6-phosphate [2]): 0.000158 ± 3.6e-05 s⁻¹ | self-cleavage kobs at 640 uM GlcN6P (glucosamine-6-phosphate [3]): 0.00067 ± 0.00012 s⁻¹ | self-cleavage kobs at 2500 uM GlcN6P (glucosamine-6-phosphate [4]): 0.00161 ± 0.00035 s⁻¹ | self-cleavage kobs at 10000 uM GlcN6P (glucosamine-6-phosphate [5]): 0.00517 ± 0.00083 s⁻¹

A12C A53G C68U
self-cleavage kobs at 40 uM GlcN6P (glucosamine-6-phosphate [1]): 6.52e-05 ± 1.6e-05 s⁻¹

C11G G44A
self-cleavage kobs at 40 uM GlcN6P (glucosamine-6-phosphate [1]): < 1e-05 s⁻¹ | self-cleavage kobs at 160 uM GlcN6P (glucosamine-6-phosphate [2]): < 1e-05 s⁻¹ | self-cleavage kobs at 640 uM GlcN6P (glucosamine-6-phosphate [3]): < 1e-05 s⁻¹ | self-cleavage kobs at 10000 uM GlcN6P (glucosamine-6-phosphate [5]): < 1e-05 s⁻¹

C11G G44U
self-cleavage kobs at 40 uM GlcN6P (glucosamine-6-phosphate [1]): < 1e-05 s⁻¹ | self-cleavage kobs at 640 uM GlcN6P (glucosamine-6-phosphate [3]): < 1e-05 s⁻¹ | self-cleavage kobs at 10000 uM GlcN6P (glucosamine-6-phosphate [5]): < 1e-05 s⁻¹

C11G G44C
self-cleavage kobs at 40 uM GlcN6P (glucosamine-6-phosphate [1]): < 1e-05 s⁻¹ | self-cleavage kobs at 160 uM GlcN6P (glucosamine-6-phosphate [2]): < 1e-05 s⁻¹ | self-cleavage kobs at 640 uM GlcN6P (glucosamine-6-phosphate [3]): < 1e-05 s⁻¹ | self-cleavage kobs at 2500 uM GlcN6P (glucosamine-6-phosphate [4]): < 1e-05 s⁻¹

A12U G59C
self-cleavage kobs at 40 uM GlcN6P (glucosamine-6-phosphate [1]): < 1e-05 s⁻¹ | self-cleavage kobs at 160 uM GlcN6P (glucosamine-6-phosphate [2]): < 1e-05 s⁻¹ | self-cleavage kobs at 640 uM GlcN6P (glucosamine-6-phosphate [3]): < 1e-05 s⁻¹ | self-cleavage kobs at 2500 uM GlcN6P (glucosamine-6-phosphate [4]): < 1e-05 s⁻¹ | self-cleavage kobs at 10000 uM GlcN6P (glucosamine-6-phosphate [5]): < 1e-05 s⁻¹

A12U G29U A33U A42U U49A
self-cleavage kobs at 40 uM GlcN6P (glucosamine-6-phosphate [1]): < 1e-05 s⁻¹

A12G A52C C67G C71U
self-cleavage kobs at 40 uM GlcN6P (glucosamine-6-phosphate [1]): < 1e-05 s⁻¹ | self-cleavage kobs at 2500 uM GlcN6P (glucosamine-6-phosphate [4]): < 1e-05 s⁻¹

A12C A14G
self-cleavage kobs at 40 uM GlcN6P (glucosamine-6-phosphate [1]): 0.00067 ± 0.00016 s⁻¹ | self-cleavage kobs at 160 uM GlcN6P (glucosamine-6-phosphate [2]): 0.00156 ± 0.00021 s⁻¹ | self-cleavage kobs at 640 uM GlcN6P (glucosamine-6-phosphate [3]): 0.00653 ± 0.0012 s⁻¹ | self-cleavage kobs at 2500 uM GlcN6P (glucosamine-6-phosphate [4]): 0.0128 ± 0.0023 s⁻¹ | self-cleavage kobs at 10000 uM GlcN6P (glucosamine-6-phosphate [5]): 0.0484 ± 0.011 s⁻¹

A12G A36C G51U
self-cleavage kobs at 40 uM GlcN6P (glucosamine-6-phosphate [1]): < 1e-05 s⁻¹ | self-cleavage kobs at 10000 uM GlcN6P (glucosamine-6-phosphate [5]): < 1e-05 s⁻¹

A12C C34G G37U
self-cleavage kobs at 40 uM GlcN6P (glucosamine-6-phosphate [1]): < 1e-05 s⁻¹ | self-cleavage kobs at 10000 uM GlcN6P (glucosamine-6-phosphate [5]): < 1e-05 s⁻¹

C11G G59A C68A
self-cleavage kobs at 40 uM GlcN6P (glucosamine-6-phosphate [1]): < 1e-05 s⁻¹ | self-cleavage kobs at 10000 uM GlcN6P (glucosamine-6-phosphate [5]): < 1e-05 s⁻¹

C11G G13A G32U
self-cleavage kobs at 40 uM GlcN6P (glucosamine-6-phosphate [1]): < 1e-05 s⁻¹
